Data on eight molecules can be found in patent publication US20240317851A1 (LANOVA MEDICINES, published 2024).

Where a chain is given by its changes, count along the chain named.

Test [1] deals with T1, human Claudin 9 (human, UniProt O95484 1-217).
T1 construct: whole, on cells; also called CLDN9; CLND9
T1 sequence (looked up): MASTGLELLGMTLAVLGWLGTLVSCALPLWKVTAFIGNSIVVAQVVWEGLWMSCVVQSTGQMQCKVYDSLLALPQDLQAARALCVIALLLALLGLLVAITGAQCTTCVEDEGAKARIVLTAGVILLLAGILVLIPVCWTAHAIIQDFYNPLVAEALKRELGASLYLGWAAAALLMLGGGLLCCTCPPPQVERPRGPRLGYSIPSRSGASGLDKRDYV
Briefly: flow cytometry, HEK293/H_CLDN9 cells, Ab titrated from 100 nM. As for the experimental part: In this example, cell-based binding of hu Abs on human CLDN9 expressing cells were assessed using flow cytometry.
Briefly, the HEK293/H_CLDN9 cells were incubated with hu-Abs (from 100 nM, 6 folds dilution, 8 points). After incubation at 4° C. for 60 minutes. Cells were pelleted and washed twice with 2% FBS/PBS buffer, and stained with fluorescent conjugated secondary antibody at 4° C. for 30 minutes. After that the cells were washed twice and resuspended in 80 μL of 2% FBS/PBS buffer. Fluorescent signal of binding was detected using Agilent. The EC50 was calculated using the GraphPad software (LaJolla, CA).

In test [2] the target is T2, human Claudin 3 (human, UniProt O15551 1-220).
T2 construct: whole, on cells; also called CLDN3
T2 sequence (looked up): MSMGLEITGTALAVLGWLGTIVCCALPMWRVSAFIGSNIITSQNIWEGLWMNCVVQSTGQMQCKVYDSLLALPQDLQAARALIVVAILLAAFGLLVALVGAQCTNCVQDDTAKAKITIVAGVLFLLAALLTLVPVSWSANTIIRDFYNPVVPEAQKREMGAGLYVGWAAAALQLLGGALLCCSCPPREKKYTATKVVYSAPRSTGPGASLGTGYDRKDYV
Description: flow cytometry, CHOK1/H_CLDN3 cells, Ab titrated from 100 nM. As for the experimental part: (§1) In this example, cell-based binding of hu Abs on human CLDN3 expressing cells were assessed using flow cytometry.
(§2) Briefly, the CHOK1/H_CLDN3 cells were incubated with hu-Abs (from 100 nM, 6 folds dilution, 8 points). After incubation at 4° C. for 60 minutes. Cells were pelleted and washed twice with 2% FBS/PBS buffer, and stained with fluorescent conjugated secondary antibody at 4° C. for 30 minutes. After that the cells were washed twice and resuspended in 80 μL of 2% FBS/PBS buffer. Fluorescent signal of binding was detected using Agilent. The EC50 was calculated using the GraphPad software.

Test [3] addresses T3, human Claudin 6 (human, UniProt P56747 1-220).
T3 construct: whole, on cells; also called CLDN6
T3 sequence (looked up): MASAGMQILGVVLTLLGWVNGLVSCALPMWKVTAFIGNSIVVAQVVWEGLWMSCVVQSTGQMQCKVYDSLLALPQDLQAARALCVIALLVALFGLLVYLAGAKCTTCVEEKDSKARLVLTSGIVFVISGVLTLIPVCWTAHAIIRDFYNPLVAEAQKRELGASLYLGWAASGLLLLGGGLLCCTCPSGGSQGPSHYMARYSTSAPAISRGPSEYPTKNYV
Description: flow cytometry, HEK293/H_CLDN6 cells, Ab titrated from 100 nM. As for the experimental part:
In this example, cell-based binding of humanized antibodies (hu Abs) on human CLDN6 expressing cells were assessed using flow cytometry.
Briefly, the HEK293/H_CLDN6 cells were incubated with hu-Abs (from 100 nM, 6 folds dilution, 8 points). After incubation at 4° C. for 60 minutes. Cells were pelleted and washed twice with 2% FBS/PBS buffer, and stained with fluorescent conjugated secondary antibody at 4° C. for 30 minutes. After that the cells were washed twice and resuspended in 80 μL of 2% FBS/PBS buffer. Fluorescent signal of binding was detected using Agilent. The EC50 was calculated using the GraphPad software.

For test [4], the target named is T2, human Claudin 3. Description: flow cytometry, CHOK1/H_CLDN3 cells. Here is the method:
as §1, §2

Test [5] concerns the target T1, human Claudin 9. Description: flow cytometry, HEK293/H_CLDN9 cells. Here is the method: In this example, cell-based binding of z5 toward human CLDN9 engineering expressing cells were assessed using flow cytometry.
Briefly, 2 cell lines were incubated with antibodies (from 100 nM, 6 folds dilution, 8 points) at 4° C. for 60 minutes. Cells were pelleted and washed twice with 2% FBS/PBS buffer, and stained with fluorescent conjugated secondary antibody at 4° C. for 30 minutes. After that the cells were washed twice and resuspended in 80 μL of 2% FBS/PBS buffer. Fluorescent signal of binding was detected using Agilent. The EC50 was calculated using the GraphPad software.

The target of test [6] is T3, human Claudin 6. Description: cell-based or functional assay.

B1: 97-C10E1-2-P1.z3 (antibody, V domains shown)
VH: QVQLVQSGAEVKKPGASVKVSCKASGYAFTGYTMNWVRQAPGQGLEWIGLSNPYNAGTIYNQKFKGRVTMTVDKSTSTVYMELSSLRSEDTAVYYCARNYYYGSSYAYYYAMDYWGQGTTVTVSS
VL: DAQMTQSPSSLSASVGDRVTITCRSSTGAVTTSNYANWVQQKPGKAPKLLIGGTNNRAPGVPSRFSGSGSGTDATLTISSLQPEDFATYYCALWYSNHWVFGGGTKVEIK
Take B1: the “Top MFI” value in the test with human Claudin 9 [1] is 594; with human Claudin 3 [2] it was 133; with human Claudin 6 [3] it was 27400. In addition, the binding result with human Claudin 3 [4] and in the test with human Claudin 9 [5] was “no binding (tested: 100 nM (highest concentration tested))” each time.

B2: z5-LM-D03 (antibody, V domains shown)
VH: B1 VH
VL: DIVVTQSPSSLSTSVGDRVTITCRSSTGAVTTSNYANWVQEKPGKAFKGLIGGTNNRAPGVPARFSGSLSGDDAALTISSAQPEDFATYFCALWYSNHWVFGGGTKVEIK
modifications: LM-D03 conjugated to the antibody (structure only as a drawing); residues and drug load not stated
As for B2, in the test with human Claudin 6 [6], the “Min cell viability, OV90 (CLDN6 low)” value amounted to 30.4%; the “Min cell viability, OVCAR-3 (CLDN6 mid)” value came out at 20.3%; the “Min cell viability, PA-1 (CLDN6 high)” value came to 12.1%.

B3: z5-DXD (antibody, V domains shown)
VH: B1 VH
VL: B2 VL
modifications: DXD conjugated to the antibody; residues and drug load not stated
On to B3, for which, in the test with human Claudin 6 [6], the “Min cell viability, OV90 (CLDN6 low)” value stood at 90.5%; the “Min cell viability, OVCAR-3 (CLDN6 mid)” value was determined as 24.5%; the “Min cell viability, PA-1 (CLDN6 high)” value turned out to be 14.1%.

B4: z5-LM-D01 (antibody, V domains shown)
VH: B1 VH
VL: B2 VL
modifications: LM-D01 conjugated to the antibody (structure only as a drawing); residues and drug load not stated
Turning to B4, in the test with human Claudin 6 [6], the “Min cell viability, OV90 (CLDN6 low)” value is 87.9%; the “Min cell viability, OVCAR-3 (CLDN6 mid)” value amounted to 0.2%; the “Min cell viability, PA-1 (CLDN6 high)” value amounted to 7.75%.

B5: 97-C10E1-2-P1.z2 (antibody, V domains shown)
VH: B1 VH
VL: EAVVTQSPATLSVSPGERATLSCRSSTGAVTTSNYANWVQEKPGQAFRGLIGGTNNRAPGIPARFSGSLSGDEATLTISSLQSEDFAVYFCALWYSNHWVFGGGTKVEIK
In the case of B5, the figures for the “Top MFI” value with human Claudin 9 [1], with human Claudin 3 [2] and with human Claudin 6 [3] were 2520, 247 and 207000, respectively. The binding result with human Claudin 3 [4] is “no binding (tested: 100 nM (highest concentration tested))”.

B6: 97-C10E1-2-P1.z5 (antibody, V domains shown)
VH: B1 VH
VL: B2 VL
notes: also called candidate antibody
As to B6, the entries for the “Top MFI” value in the test with human Claudin 9 [1] and with human Claudin 3 [2] were 1560 and 254, respectively. Moreover, the binding result with human Claudin 3 [4] was “no binding (tested: 100 nM (highest concentration tested))”.

B7: 97-C10E1-2-P1.z10 (antibody, V domains shown)
VH: B1 VH with V5Q, G44N, M70L, S84L
VL: B2 VL
Regarding B7, the “Top MFI” value came out at 258 in the test with human Claudin 9 [1], 160 with human Claudin 3 [2] and 121000 with human Claudin 6 [3]. Further, the binding result with human Claudin 3 [4] and in the test with human Claudin 9 [5] was “no binding (tested: 100 nM (highest concentration tested))” throughout.

B8: 97-C10E1-2-P1.z8 (antibody, V domains shown)
VH: B1 VH with V5Q, G44N, M70L, S84L
VL: B1 VL
For B8, the “Top MFI” value turned out to be 542 in the test with human Claudin 9 [1], 137 in the test with human Claudin 3 [2] and 16300 with human Claudin 6 [3]. For the same molecule, the binding result in the test with human Claudin 3 [4] and in the test with human Claudin 9 [5] was “no binding (tested: 100 nM (highest concentration tested))” throughout.
